Entries after “also recorded” stand apart in the source; their conditions may differ.
Columns and labels:
[1] = tested on: NGF-differentiated PC12 cells; assay: LPA-induced neurite retraction; format: cell-based
Experimental: FIG. 6B represents histograms quantifying the effects of GFP-TRIPα or GFP on LPA (lysophosphatidic acid) induced neurite retraction in NGF-differentiated PC12 cells. The X-axis represents the time after LPA addition in minutes and the Y-axis represents the percentage of transfected cells with neurites.
Cells were transfected with GFP-TRIPα (white bars) or GFP (black bars) and differentiated with NGF (50 ng/ml). 10 μM LPA was added and neurite retraction was followed for 15 minutes. The number of transfected cells with neurites was counted from at least 200 cells in 3 independent experiments.
Among the serum components known to trigger neurite retraction and cell rounding in neuronal cells is lysophosphatidic acid (LPA) (Moolenaar et al., 1997). Thus, a similar neurite retraction assay was performed, except that, instead of the serum-containing medium, LPA (10 μM, Sigma) was added to TRIPα transfected and differentiated PC12 cells (FIG. 6B).

p63RhoGEF = biological target: T1, p63RhoGEF (Homo sapiens, UniProt Q86VW2); assay: In vitro GEF assay on RhoA; format: biochemical; design: key to in vitro GEF assay (inhibition): +++^2 and +^2 represent respectively a full and a partial (see FIG. 3) inhibitory effect; +++^2 and +^2 represent respectively a full and a partial (see FIG. 3) inhibitory effect; −−^2 represents a lack of inhibitory effect; conditions: for Effect on p63RhoGEF exchange activity on RhoA: 20-fold molar excess, p63RhoGEF 0.4 μM
T1 construct: (a.a. 149-374, 71.5% identity with TrioGEFD2, 0.4 μM); made in house
Experimental: To test the specificity of TRIAPα inhibition in vitro, exchange experiments were performed either on RhoA with different RhoA-specific GEFs: Trio GEFD2 (0.4 μM), Kalirin GEFD2 (KalGEFD2, 1.7 μM), p63RhoGEF (Souchet et al., 2002) (0.4 μM) and Lbc (amino acids 172-598; Zheng et al., 1995) (0.4 μM), or on RhoG, with the RhoG-specific GEF domain of Trio (TrioGEFD1, 0.1 μM). Exchange assays were performed with the recombinant GEFs as described in FIG. 2A. Different concentrations of RhoGEFs were used to yield a similar nucleotide exchange efficiency. For each exchange factor, three independent experiments were done in absence (black bar) or in the presence (grey bar) of a 20-fold molar excess of TRIAPα.
An in vitro guanine nucleotide exchange (GEF) assay was used to test whether the TrioGEFD2-binding aptamers could inhibit the catalytic activity of TrioGEFD2 towards RhoA. For this purpose, the aptamers TRIAPα, TRIAPβ and TRIAPγ (including the Trx gene) were excised from pEG202 as EcoRI/NotI fragments and cloned into pGEX4T1 EcoRI/NotI. The aptamers were then expressed and purified from bacteria as GST fusion proteins, using standard procedures (Smith and Johnson, 1988). GTPase-GST fusion proteins were prepared, loaded with [^3H]GDP and the guanine nucleotide release assays were performed as described (Debant et al., 1996), using recombinant GST-TrioGEFD2 (a.a. 1848-2298), TrioDH2 (a.a. 1848-2096). For each point, 0.3 μM GTPase was mixed with or without 0.4 μM GEF in presence of non-labeled GTP, and the reaction mix was filtered after 0 min and 15 mm reaction at 25° C. The catalytic activity of TrioGEFD2 was thus measured by the decrease of the GTPase-associated radioactivity. The results are expressed as the ratio “exchange after 15 min over exchange after 0 min” (% bound [^3H]GDP-RhoA). To measure the effect of the aptamers on the exchange activity, a 20-fold molar excess of GST-TRIAPs was pre-incubated with GEFD2 (or GEFD1) for 30 min on ice before the exchange assay was carried out. For each experiment, data were obtained in triplicate.
The effect of GST-TRIAPα on other Rho-GEFs that display in vitro exchange activity on RhoA was next tested to investigate whether TRIAPα inhibition was specific of TrioGEFD2. The exchange activities of the RhoGEF Lbc (a.a. 1-424, FIG. 3)(Zheng et al., 1995) and Dbl (a.a. 495-826, data not shown) were not affected by GST-TRIAPα. The effect of GST-TRIAPα on the catalytic activity of RhoGEFs that display a high sequence similarity with TrioGEFD2 was then tested: the recently identified RhoA-specific p63RhoGEF (Souchet et al., 2002) (a.a. 149-374, 71.5% identity with TrioGEFD2, 0.4 μM) and the second Rho-GEF domain of the Trio family member Kalirin (KalGEFD2, a.a. 1850-2190, 65% identity with TrioGEFD2, 1.7 μM). Different concentrations of RhoGEFs were used to yield similar nucleotide exchange […]. For each exchange factor, three independent experiments were done in absence or in the presence of a 20-fold molar excess of GST-TRIAPα. […] Thus, the in vitro inhibitory activity of TRIAPα was selective for TrioGEFD2 (see table I for summary of the tested RhoGEFs).

T1 sequence (Q86VW2 149-374): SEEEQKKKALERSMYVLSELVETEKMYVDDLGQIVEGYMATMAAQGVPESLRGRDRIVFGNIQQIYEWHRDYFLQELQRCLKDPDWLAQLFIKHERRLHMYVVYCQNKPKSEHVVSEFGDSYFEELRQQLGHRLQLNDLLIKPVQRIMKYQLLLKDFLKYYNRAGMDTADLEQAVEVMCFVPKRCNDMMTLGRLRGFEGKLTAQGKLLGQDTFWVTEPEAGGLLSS

Effect on p63RhoGEF exchange activity on RhoA (p63RhoGEF)	Effect on p63RhoGEF exchange activity on RhoA (p63RhoGEF; listed as GST-TRIAPα)	in vitro GEF assay (inhibition) (p63RhoGEF; RhoGEF p63RhoGEF)	Molecule	Effect on LPA-induced neurite retraction ([1]; 10 μM LPA, 15 min)	percentage of transfected cells with neurites after LPA addition ([1]; 15 min after 10 μM LPA)
			AREGADGAICGYNLATLVMLGPSERVFCPLCEPCSSDIYELM [TRIPα, 42-amino acid peptide corresponding to the variable region of TRIAPα]	prevents serum- and LPA-induced neurite retraction; also recorded: also inhibited LPA-mediated neurite collapse	more than 37%
has no effect	had no effect	−−^2	TRIAPα: aptamer of 154 amino acids: variable region of 42 amino acids inserted into the thioredoxin protein; tested as GST fusion (protein) MSDKIIHLTDDSFDTDVLKADGAILVDFWAEWCGPAREGADGAICGYNLATLVMLGPSERVFCPLCEPCSSDIYELMGPCKMIAPILDEIADEYQGKLTVAKLNIDQNPGTAPKYGIRGIPTLLLFKNGEVASATKVGALSKGQLKEFLDANLA		
